Assay results from paper doi:10.1101/806364.

Legend:
Assay in all cases: selective 80S ribosome footprinting
[1] = target: eIF4G1 (human (endogenous in HeLa)) (UniProt Q04637)
[2] = target: eIF4E (human (endogenous in HeLa)) (UniProt P06730)
[3] = target: eIF3B (human (endogenous in HeLa)) (UniProt P55884)

Measured: decay half-length of the factor on elongating 80S ribosomes

UniProt P55884, sequence (P55884 whole entry): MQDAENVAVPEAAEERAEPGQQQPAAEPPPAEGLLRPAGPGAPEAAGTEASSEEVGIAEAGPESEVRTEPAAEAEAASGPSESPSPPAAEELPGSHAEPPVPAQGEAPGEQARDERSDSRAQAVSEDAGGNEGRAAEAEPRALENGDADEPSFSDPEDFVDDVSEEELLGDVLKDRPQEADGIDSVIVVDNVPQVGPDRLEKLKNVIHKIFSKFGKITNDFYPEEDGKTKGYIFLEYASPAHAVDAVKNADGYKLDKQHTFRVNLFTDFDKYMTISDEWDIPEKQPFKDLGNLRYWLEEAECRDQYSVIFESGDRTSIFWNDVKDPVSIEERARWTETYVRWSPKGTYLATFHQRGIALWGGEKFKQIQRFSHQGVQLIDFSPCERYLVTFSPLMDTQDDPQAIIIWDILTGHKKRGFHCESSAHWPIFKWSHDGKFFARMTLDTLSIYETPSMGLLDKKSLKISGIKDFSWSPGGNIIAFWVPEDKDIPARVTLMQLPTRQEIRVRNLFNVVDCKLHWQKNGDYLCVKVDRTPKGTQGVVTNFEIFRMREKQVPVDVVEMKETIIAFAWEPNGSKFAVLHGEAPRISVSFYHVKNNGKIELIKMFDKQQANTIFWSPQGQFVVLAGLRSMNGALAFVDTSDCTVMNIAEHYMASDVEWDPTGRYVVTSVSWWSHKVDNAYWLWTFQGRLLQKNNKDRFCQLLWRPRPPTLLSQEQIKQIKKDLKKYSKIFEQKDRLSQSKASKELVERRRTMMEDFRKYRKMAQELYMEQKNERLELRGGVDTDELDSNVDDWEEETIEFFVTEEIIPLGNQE
UniProt Q04637, sequence (Q04637 whole entry): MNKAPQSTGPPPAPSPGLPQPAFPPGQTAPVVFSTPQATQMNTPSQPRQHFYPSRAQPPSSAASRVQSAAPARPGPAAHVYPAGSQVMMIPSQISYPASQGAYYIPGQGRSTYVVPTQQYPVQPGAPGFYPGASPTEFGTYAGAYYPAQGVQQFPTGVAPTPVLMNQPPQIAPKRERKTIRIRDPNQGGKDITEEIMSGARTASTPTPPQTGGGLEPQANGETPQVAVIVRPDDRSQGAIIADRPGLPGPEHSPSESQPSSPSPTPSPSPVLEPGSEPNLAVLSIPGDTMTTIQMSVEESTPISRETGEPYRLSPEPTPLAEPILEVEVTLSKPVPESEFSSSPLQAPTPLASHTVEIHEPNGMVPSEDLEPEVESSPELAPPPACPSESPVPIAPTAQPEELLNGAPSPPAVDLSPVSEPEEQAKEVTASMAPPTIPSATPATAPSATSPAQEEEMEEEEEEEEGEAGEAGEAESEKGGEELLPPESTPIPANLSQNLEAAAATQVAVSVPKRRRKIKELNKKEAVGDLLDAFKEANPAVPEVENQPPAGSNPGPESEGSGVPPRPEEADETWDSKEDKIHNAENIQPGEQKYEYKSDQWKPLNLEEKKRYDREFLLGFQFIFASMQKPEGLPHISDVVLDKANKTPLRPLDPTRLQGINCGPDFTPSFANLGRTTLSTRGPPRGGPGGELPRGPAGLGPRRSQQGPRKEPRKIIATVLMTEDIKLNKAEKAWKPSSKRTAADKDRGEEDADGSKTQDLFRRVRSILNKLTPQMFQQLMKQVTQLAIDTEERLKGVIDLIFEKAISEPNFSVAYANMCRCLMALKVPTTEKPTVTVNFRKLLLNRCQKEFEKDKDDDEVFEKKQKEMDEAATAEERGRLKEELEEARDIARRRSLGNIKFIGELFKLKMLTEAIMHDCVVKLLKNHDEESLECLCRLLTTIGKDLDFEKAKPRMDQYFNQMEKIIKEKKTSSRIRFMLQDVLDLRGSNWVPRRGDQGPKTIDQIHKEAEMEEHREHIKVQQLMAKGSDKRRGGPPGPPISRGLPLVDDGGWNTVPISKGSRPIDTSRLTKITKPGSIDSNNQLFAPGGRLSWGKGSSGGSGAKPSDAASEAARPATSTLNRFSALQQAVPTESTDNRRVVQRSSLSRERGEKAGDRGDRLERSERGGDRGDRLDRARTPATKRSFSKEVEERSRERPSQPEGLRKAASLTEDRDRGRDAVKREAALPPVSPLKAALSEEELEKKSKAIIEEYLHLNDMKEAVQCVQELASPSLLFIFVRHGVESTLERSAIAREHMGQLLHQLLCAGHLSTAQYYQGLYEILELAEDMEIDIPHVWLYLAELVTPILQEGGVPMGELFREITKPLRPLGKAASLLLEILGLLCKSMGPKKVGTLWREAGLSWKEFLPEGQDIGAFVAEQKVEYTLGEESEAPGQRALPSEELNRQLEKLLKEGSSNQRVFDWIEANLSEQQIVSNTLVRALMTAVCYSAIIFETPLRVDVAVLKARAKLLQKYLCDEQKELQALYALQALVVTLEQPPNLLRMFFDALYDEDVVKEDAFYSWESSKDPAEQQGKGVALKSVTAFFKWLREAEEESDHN
UniProt P06730, sequence (P06730 whole entry): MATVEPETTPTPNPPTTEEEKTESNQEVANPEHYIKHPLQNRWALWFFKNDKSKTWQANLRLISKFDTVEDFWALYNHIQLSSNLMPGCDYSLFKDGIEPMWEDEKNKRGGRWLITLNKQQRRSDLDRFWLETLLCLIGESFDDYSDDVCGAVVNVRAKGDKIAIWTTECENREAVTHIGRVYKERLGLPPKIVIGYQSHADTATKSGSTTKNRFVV

80S ribosome (complex)
36 nucleotides: all assays above
